Data taken from US20070264195A1 (H LUNDBECK A S, published 2007).

T1: purified human Sortilin extracellular domain (human, UniProt Q99523 78-755)
T1 construct: also called immobilized Sortilin; NTR-3
T1 sequence: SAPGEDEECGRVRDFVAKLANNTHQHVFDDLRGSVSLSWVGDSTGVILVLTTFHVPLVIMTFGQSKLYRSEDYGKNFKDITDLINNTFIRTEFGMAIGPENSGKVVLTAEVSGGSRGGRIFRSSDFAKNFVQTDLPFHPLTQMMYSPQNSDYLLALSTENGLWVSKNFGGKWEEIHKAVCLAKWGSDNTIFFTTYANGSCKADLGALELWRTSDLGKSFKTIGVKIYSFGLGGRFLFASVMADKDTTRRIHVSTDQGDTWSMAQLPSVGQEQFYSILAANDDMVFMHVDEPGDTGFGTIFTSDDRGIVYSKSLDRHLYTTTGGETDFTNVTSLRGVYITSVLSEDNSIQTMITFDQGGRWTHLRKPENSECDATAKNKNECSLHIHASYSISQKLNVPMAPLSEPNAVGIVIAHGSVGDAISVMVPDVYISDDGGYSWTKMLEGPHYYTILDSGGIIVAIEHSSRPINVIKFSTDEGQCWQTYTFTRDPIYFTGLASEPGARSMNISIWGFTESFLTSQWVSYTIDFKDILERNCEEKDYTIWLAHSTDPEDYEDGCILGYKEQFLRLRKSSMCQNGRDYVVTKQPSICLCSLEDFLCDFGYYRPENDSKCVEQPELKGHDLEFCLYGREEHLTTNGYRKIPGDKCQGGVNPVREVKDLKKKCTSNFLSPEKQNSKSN

B1: Mature murine NGF (Austral Biologicals) (ligand, UniProt P01139 122-241, looked up)
chain: SSTHPVFHMGEFSVCDSVSVWVGDKTTATDIKGKEVTVLAEVNINNSVFRQYFFETKCRASNPVESGCRGIDSKHWNSYCTTTHTFVKALTTDEKQAAWRFIRIDTACVCVLSRKATRRG
notes: mature; also called nerve growth factor
B2: Rat proBDNF (produced in 293 cells, purified from conditioned medium) (ligand, UniProt P23363 19-249, looked up)
chain: APMKEANVHGQGNLAYPAVRTHGTLESVNGPRAGSRGLTTTSLADTFEHVIEELLDEDQKVRPNEENHKDADLYTSRVMLSSQVPLEPPLLFLLEEYKNYLDAANMSMRVRRHSDPARRGELSVCDSISEWVTAADKKTAVDMSGGTVTVLEKVPVSKGQLKQYFYETKCNPMGYTKEGCRGIDKRHWNSQCRTTQSYVRALTMDSKKRIGWRFIRIDTSCVCTLTIKRGR
notes: Pro-form of BDNF
B3: Mature recombinant human BDNF (Promega #G1491) (ligand)
chain: HSDPARRGELSVCDSISEWVTAADKKTAVDMSGGTVTVLEKVPVSKGQLKQYFYETKCNPMGYTKEGCRGIDKRHWNSQCRTTQSYVRALTMDSKKRIGWRFIRIDTSCVCTLTIKRGR
notes: also called mature BDNF
B4: pro-domain of human BDNF fused to GST (glutathione S-transferase), produced in E. coli (other)
chain: APMKEANIRGQGGLAYPGVRTHGTLESVNGPKAGSGLTSLADTFEHVIEELLDEDQKVRPNEENNKDADLYTSRVMLSSQVPLEPPLLFLLEEYKNYLDAANMSMRVRR
notes: The residues 19-127 come from the description of the propart for BDNF; also called GST-pro-domain of proBDNF; pro-domain of proBDNF (a GST-fusion protein); not shown: glutathione S-transferase (GST) fusion partner
B5: recombinant human p75 neurotrophin receptor/Fc chimera (R&D Systems) (Fc fusion, UniProt P08138 29-250, looked up)
chain: KEACPTGLYTHSGECCKACNLGEGVAQPCGANQTVCEPCLDSVTFSDVVSATEPCKPCTECVGLQSMSAPCVEADDAVCRCAYGYYQDETTGRCEACRVCEAGSGLVFSCQDKQNTVCEECPDGTYSDEANHVDPCLPCTVCEDTERQLRECTRWADAECEEIPGRWITRSTPPEGSDSTAPSTQEPEAPPEQDLIASTVAGVVTTVMGSSQPVVTRGTTDN
notes: Bought reagent; also called p75-IgG-Fc chimeric protein; p75NTR; not shown: IgG Fc of the bought chimera
B6: human NGF-propeptide expressed in E. coli (peptide)
chain: EPHSESNVPAGHTIPQVHWTKLQHSLDTALRRARSAPAAAIAARVAGQTRNITVDPRLFKKRRLRSPRVLFSTQPPREAADTQDLDFEVGGAAPFNRTHRSKR
notes: The residues 19-121 come from the description of the propart for NGF; also called proNGF propeptide; propeptide of proNGF

Legend:
[1] = biological target: T2, recombinant human TrkA/Fc chimera (R&D Systems) (human, UniProt P04629-2 34-407); experiment: SPR (BIAcore), 50-500 nM NGF over TrkA-IgG-Fc immobilized at 66 fmol/mm2
T2 construct: Bought reagent; also called TrkA-IgG-Fc; not shown: IgG Fc of the bought chimera
Protocol: (§1) FIG. 2: Characterization of NGF binding to p75, TrkA, and Sortilin as measured by surface plasmon resonance analysis (BIAcore). Binding of 50-500 nM NGF was measured to 91.5 fmol/mm² immobilized p75-IgG-Fc chimeric protein (upper panel), to 66 fmol/mm² immobilized TrkA-IgG-Fc (middle panel), and to 51 fmol/mm² purified Sortilin extracellular domain (lower panel).

[2] = biological target: B5; experiment: SPR (BIAcore), 50-500 nM NGF over p75-IgG-Fc immobilized at 91.5 fmol/mm2
Protocol: as §1

[3] = biological target: T1, purified human Sortilin extracellular …; experiment: SPR (BIAcore), 50-500 nM NGF over Sortilin extracellular domain immobilized at 51 fmol/mm2
Protocol: as §1

[4] = biological target: T1, purified human Sortilin extracellular …; experiment: SPR (BIAcore), 5-500 nM proBDNF over Sortilin extracellular domain immobilized at 94 fmol/mm2
Text: (§2) FIG. 7: Characterization of proBDNF and BDNF binding to purified Sortilin as measured by surface plasmon resonance (BIAcore). Rat proBDNF was produced in 293 cells as described in Lee, R., Kermani, P., Teng, K. K. & Hempstead, B. L. Regulation of cell survival by secreted proneurotrophins. Science 294, 1945-1948 (2001). and purified from the conditioned medium. Mature recombinant human BDNF was from Promega (#G1491) and the pro-domain of human BDNF fused to GST (glutathione S-transferase) was produced in E. coli and purified by glutathione-sepharose affinity chromatography. Binding of 5-500 nM proBDNF (upper panel), pro-domain of proBDNF (a GST-fusion protein, middle panel) or BDNF (lower panel) was measured to 94 fmol/mm2 immobilized purified Sortilin extracellular domain. The experiment was carried out essentially as described for FIGS. 2-4.

[5] = biological target: T1, purified human Sortilin extracellular …; experiment: SPR (BIAcore), other preparations of mature BDNF over immobilized Sortilin; other preparations of mature BDNF
[6] = biological target: T1, purified human Sortilin extracellular …; experiment: SPR (BIAcore), 5-500 nM BDNF over Sortilin extracellular domain immobilized at 94 fmol/mm2; Promega #G1491 preparation
Text: as §2

[7] = biological target: T1, purified human Sortilin extracellular …; experiment: SPR (BIAcore), 5-500 nM GST-pro-domain over Sortilin extracellular domain immobilized at 94 fmol/mm2
Text: as §2

[8] = biological target: T3, Human recombinant proNGF (produced in E. coli) (human, UniProt P01138 19-241); experiment: SPR (BIAcore), 25-500 nM proNGF over p75-IgG-Fc immobilized at 91.5 fmol/mm2
T3 construct: The end 241 is the end of the entry as printed
Protocol: as §1, with “3:” for “2:”, “proNGF” for “NGF”, “25-500” for “50-500”

[9] = biological target: T2, recombinant human TrkA/Fc chimera (R&D …); experiment: SPR (BIAcore), TrkA-IgG-Fc immobilized at 66 fmol/mm2
Protocol: as §1, with “4:” for “2:”, “of” for “of NGF”, “binding of the proNGF propeptide” for “binding”, “25-500” for “50-500”, “propeptide” for “NGF”, “panel). […] There was no detectable binding to p75 and TrkA.” for “panel).”

[10] = biological target: B5; experiment: SPR (BIAcore), p75-IgG-Fc immobilized at 91.5 fmol/mm2
Protocol: as §1, with “4:” for “2:”, “of” for “of NGF”, “binding of the proNGF propeptide” for “binding”, “25-500” for “50-500”, “propeptide” for “NGF”, “panel). […] There was no detectable binding to p75 and TrkA.” for “panel).”

[11] = biological target: T1, purified human Sortilin extracellular …; experiment: SPR (BIAcore), 25-500 nM propeptide over Sortilin extracellular domain immobilized at 51 fmol/mm2
Protocol: as §1, with “4:” for “2:”, “of” for “of NGF”, “binding of the proNGF propeptide” for “binding”, “25-500” for “50-500”, “propeptide” for “NGF”, “panel). […] There was no detectable binding to p75 and TrkA.” for “panel).”

T2 sequence (P04629 other isoform, or with tags, fused parts or gaps mutant): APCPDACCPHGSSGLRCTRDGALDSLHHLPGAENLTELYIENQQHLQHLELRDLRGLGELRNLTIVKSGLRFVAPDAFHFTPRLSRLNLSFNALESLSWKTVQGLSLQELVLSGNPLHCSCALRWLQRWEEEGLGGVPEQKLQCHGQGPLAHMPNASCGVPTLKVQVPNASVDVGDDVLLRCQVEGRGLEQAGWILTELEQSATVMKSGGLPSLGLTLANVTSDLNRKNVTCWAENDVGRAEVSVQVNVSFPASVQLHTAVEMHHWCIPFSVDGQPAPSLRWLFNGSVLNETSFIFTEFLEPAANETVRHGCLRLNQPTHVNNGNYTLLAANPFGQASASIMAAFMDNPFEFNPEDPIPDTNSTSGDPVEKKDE

B1
Kd [1]: ~2 nM
Kd [2]: ~1 nM
Kd [3]: ~87 nM

B2
Kd [4]: ~3 nM

B3
Kd [5]: 10 nM
Kd [6]: ~40 nM

B4
Kd [7]: ~58 nM

B5
Kd [8]: ~12 nM

B6
binding result [9]: no binding (tested: 25-500 nM propeptide)
binding result [10]: no binding (tested: 25-500 nM propeptide)
Kd [11]: ~87 nM
